Like-named read-outs stand apart in the source and are kept apart here.
Tests used:
[1] = molecular target: T1, iC3b (UniProt P01024 23-667; P01024 749-1303; P01024 1321-1663); experiment: SPR; thioester-coupled (clustered), steady state
[2] = molecular target: T2, C3b (UniProt P01024 749-1663; P01024 23-667); experiment: SPR; amine-coupled C3b (monomeric), steady state
[3] = molecular target: C3dg (UniProt P01024 955-1303); experiment: SPR; thioester-coupled (clustered), steady state
[4] = molecular target: T2, C3b; experiment: SPR; thioester-coupled C3b (clustered), steady state
[5] = molecular target: T1, iC3b; experiment: SPR; thioester-coupled (clustered), steady state; remark: listed apart in the source
[6] = molecular target: T2, C3b; experiment: SPR; amine-coupled C3b (monomeric), steady state; remark: listed apart in the source

T2 sequence (P01024 749-1663, chain 1 of 2): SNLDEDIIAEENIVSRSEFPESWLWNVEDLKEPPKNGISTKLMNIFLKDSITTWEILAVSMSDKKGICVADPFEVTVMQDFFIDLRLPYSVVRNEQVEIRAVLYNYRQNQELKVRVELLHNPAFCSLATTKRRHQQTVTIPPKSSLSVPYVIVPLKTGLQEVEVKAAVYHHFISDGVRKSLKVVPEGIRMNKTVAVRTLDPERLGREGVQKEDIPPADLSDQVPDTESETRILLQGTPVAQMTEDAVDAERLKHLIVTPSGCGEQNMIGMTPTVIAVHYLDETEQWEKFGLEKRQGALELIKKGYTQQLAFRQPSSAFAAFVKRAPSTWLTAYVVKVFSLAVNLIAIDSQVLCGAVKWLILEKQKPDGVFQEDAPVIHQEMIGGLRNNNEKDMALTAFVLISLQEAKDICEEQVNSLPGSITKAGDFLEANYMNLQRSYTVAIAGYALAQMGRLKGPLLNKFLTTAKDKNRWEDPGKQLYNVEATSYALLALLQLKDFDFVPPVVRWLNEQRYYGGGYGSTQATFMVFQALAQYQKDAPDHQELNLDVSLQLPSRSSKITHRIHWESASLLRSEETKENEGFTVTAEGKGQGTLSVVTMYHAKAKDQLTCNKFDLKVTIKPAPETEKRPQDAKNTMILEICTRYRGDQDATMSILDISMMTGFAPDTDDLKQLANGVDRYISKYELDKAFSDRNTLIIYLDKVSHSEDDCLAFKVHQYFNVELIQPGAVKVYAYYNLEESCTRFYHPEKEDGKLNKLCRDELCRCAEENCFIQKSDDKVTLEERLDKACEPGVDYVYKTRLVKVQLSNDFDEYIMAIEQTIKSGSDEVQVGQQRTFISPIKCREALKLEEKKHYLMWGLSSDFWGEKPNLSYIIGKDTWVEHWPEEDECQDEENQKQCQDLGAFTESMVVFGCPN
T2 sequence (P01024 23-667, chain 2 of 2): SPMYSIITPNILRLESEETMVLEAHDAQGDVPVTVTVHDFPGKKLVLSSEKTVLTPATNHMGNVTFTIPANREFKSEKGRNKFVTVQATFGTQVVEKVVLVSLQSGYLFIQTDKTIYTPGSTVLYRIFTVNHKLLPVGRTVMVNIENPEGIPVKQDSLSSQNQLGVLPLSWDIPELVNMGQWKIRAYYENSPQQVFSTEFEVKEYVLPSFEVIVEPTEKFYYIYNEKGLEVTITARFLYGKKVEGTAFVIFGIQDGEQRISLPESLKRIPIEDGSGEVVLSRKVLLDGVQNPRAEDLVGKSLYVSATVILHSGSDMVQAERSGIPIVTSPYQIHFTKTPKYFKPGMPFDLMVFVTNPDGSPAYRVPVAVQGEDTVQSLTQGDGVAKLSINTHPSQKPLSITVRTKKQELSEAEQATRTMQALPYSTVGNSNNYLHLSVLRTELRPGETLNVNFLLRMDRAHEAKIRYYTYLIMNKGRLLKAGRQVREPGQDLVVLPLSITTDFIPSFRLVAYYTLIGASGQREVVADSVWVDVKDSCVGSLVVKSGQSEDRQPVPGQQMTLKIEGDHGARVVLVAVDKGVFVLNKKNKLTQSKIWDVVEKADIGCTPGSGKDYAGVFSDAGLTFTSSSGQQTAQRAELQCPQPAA
T1 sequence (P01024 23-667, chain 1 of 3): as the sequence (P01024 23-667, chain 2 of 2) above
T1 sequence (P01024 749-1303, chain 2 of 3): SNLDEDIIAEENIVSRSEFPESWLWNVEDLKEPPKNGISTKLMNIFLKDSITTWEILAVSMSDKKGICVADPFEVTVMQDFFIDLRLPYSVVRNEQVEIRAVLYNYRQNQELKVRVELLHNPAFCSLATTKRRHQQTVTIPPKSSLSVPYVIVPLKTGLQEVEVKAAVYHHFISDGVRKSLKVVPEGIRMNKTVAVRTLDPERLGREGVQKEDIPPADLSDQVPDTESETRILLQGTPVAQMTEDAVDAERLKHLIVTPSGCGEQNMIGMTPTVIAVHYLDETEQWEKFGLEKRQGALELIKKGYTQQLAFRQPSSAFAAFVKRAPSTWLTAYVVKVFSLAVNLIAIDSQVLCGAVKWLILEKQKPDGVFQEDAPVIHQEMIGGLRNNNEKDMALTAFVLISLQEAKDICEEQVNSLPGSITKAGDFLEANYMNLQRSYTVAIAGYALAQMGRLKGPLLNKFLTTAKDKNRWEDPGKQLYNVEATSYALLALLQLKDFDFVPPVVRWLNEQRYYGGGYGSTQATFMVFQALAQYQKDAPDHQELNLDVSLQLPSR
T1 sequence (P01024 1321-1663, chain 3 of 3): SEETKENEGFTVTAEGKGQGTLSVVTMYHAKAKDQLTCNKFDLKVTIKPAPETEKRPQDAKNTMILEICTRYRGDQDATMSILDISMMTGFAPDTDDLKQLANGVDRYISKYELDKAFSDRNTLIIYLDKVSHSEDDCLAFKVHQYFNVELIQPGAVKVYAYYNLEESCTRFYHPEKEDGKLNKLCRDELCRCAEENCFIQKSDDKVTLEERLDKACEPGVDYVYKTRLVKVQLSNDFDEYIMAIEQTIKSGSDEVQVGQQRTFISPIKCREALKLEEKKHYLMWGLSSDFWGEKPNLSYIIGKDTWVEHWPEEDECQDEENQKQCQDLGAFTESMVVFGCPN
C3dg, sequence (P01024 955-1303): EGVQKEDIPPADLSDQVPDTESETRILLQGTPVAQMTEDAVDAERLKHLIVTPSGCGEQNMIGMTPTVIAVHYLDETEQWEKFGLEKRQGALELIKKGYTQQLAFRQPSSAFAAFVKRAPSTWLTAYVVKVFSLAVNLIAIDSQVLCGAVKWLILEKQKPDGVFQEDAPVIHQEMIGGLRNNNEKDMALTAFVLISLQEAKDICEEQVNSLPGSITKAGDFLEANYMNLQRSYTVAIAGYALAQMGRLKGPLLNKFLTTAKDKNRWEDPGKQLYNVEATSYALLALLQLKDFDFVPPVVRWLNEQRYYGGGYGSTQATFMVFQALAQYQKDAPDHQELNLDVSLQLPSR

Binder	Kd [1]	Kd [2]	Kd [3]	Kd [4]	Kd [5]	Kd [6]
CFHR5 (complement factor H-related protein 5), wild type (other) EGTLCDFPKIHHGFLYDEEDYNPFSQVPTGEVFYYSCEYNFVSPSKSFWTRITCTEEGWSPTPKCLRMCSFPFVKNGHSESSGLIHLEGDTVQIICNTGYSLQNNEKNISCVERGWSTPPICSFTKGECHVPILEANVDAQPKKESYKVGDVLKFSCRKNLIRVGSDSVQCYQFGWSPNFPTCKGQVRSCGPPPQLSNGEVKEIRKEEYGHNEVVEYDCNPNFIINGPKKIQCVDGEWTTLPTCVEQVKTCGYIPELEYGYVQPSVPPYQHGVSVEVNCRNEYAMIGNNMITCINGIWTELPMCVATHQLKRCKIAGVNIKTLLKLSGKEFNHNSRIRYRCSDIFRYRHSVCINGKWNPEVDCTEKREQFCPPPPQIPNAQNMTTTVNYQDGEKVAVLCKENYLLPEAKEIVCKDGRWQSLPRCVESTAYCGPPPSINNGDTTSFPLSVYPPGSTVTYRCQSFYKLQGSVTVTCRNKQWSEPPRCLDPCVVSEENMNKNNIQLKWRNDGKLYAKTGDAVEFQCKFPHKAMISSPPFRAICQEGKFEYPICE	270 nM	3800 nM	270 nM	310 nM		
Complement factor H (CFH) (other) EDCNELPPRRNTEILTGSWSDQTYPEGTQAIYKCRPGYRSLGNVIMVCRKGEWVALNPLRKCQKRPCGHPGDTPFGTFTLTGGNVFEYGVKAVYTCNEGYQLLGEINYRECDTDGWTNDIPICEVVKCLPVTAPENGKIVSSAMEPDREYHFGQAVRFVCNSGYKIEGDEEMHCSDDGFWSKEKPKCVEISCKSPDVINGSPISQKIIYKENERFQYKCNMGYEYSERGDAVCTESGWRPLPSCEEKSCDNPYIPNGDYSPLRIKHRTGDEITYQCRNGFYPATRGNTAKCTSTGWIPAPRCTLKPCDYPDIKHGGLYHENMRRPYFPVAVGKYYSYYCDEHFETPSGSYWDHIHCTQDGWSPAVPCLRKCYFPYLENGYNQNYGRKFVQGKSIDVACHPGYALPKAQTTVTCMENGWSPTPRCIRVKTCSKSSIDIENGFISESQYTYALKEKAKYQCKLGYVTADGETSGSITCGKDGWSAQPTCIKSCDIPVFMNARTKNDFTWFKLNDTLDYECHDGYESNTGSTTGSIVCGYNGWSDLPICYERECELPKIDVHLVPDRKKDQYKVGEVLKFSCKPGFTIVGPNSVQCYHFGLSPDLPICKEQVQSCGPPPELLNGNVKEKTKEEYGHSEVVEYYCNPRFLMKGPNKIQCVDGEWTTLPVCIVEESTCGDIPELEHGWAQLSSPPYYYGDSVEFNCSESFTMIGHRSITCIHGVWTQLPQCVAIDKLKKCKSSNLIILEEHLKNKKEFDHNSNIRYRCRGKEGWIHTVCINGRWDPEVNCSMAQIQLCPPPPQIPNSHNMTTTLNYRDGEKVSVLCQENYLIQEGEEITCKDGRWQSIPLCVEKIPCSQPPQIEHGTINSSRSSQESYAHGTKLSYTCEGGFRISEENETTCYMGKWSSPPQCEGLPCKSPPEISHGVVAHMSDSYQYGEEVTYKCFEGFGIDGPAIAKCLGEKWSHPPSCIKTDCLSLPSFENAIPMGEKKDVYKAGEQVTYTCATYYKMDGASNVTCINSRWTGRPTCRDTSCVNPPTVQNAYIVSRQMSKYPSGERVRYQCRSPYEMFGDEEVMCLNGNWTEPPQCKDSTGKCGPPPPIDNGDITSFPLSVYAPASSVEYQCQNLYQLEGNKRITCRNGQWSEPPKCLHPCVISREIMENYNIALRWTAKQKLYSRTGESVEFVCKRGYRLSSRSHTLRTTCWDGKLEYPTCAKR					2600 nM	1700 nM

— US20150361183A1 (published 2015)
